# According to patent publication US20190091296:
# B1: recombinant human DPP4 (protein)
# chain: SRKTYTLTDYLKNTYRLKLYSLRWISDHEYLYKQENNILVFNAEYGNSSVFLENSTFDEFGHSINDYSISPDGQFILLEYNYVKQWRHSYTASYDIYDLNKRQLITEERIPNNTQWVTWSPVGHKLAYVWNNDIYVKIEPNLPSYRITWTGKEDIIYNGITDWVYEEEVFSAYSALWWSPNGTFLAYAQFNDTEVPLIEYSFYSDESLQYPKTVRVPYPKAGAVNPTVKFFVVNTDSLSSVTNATSIQITAPASMLIGDHYLCDVTWATQERISLQWLRRIQNYSVMDICDYDESSGRWNCLVARQHIEMSTTGWVGRFRPSEPHFTLDGNSFYKIISNEEGYRHICYFQIDKKDCTFITKGTWEVIGIEALTSDYLYYISNEYKGMPGGRNLYKIQLSDYTKVTCLSCELNPERCQYYSVSFSKEAKYYQLRCSGPGLPLYTLHSSVNDKGLRVLEDNSALDKMLQNVQMPSKKLDFIILNETKFWYQMILPPHFDKSKKYPLLLDVYAGPCSQKADTVFRLNWATYLASTENIIVASFDGRGSGYQGDKIMHAINRRLGTFEVEDQIEAARQFSKMGFVDNKRIAIWGWSYGGYVTSMVLGSGSGVFKCGIAVAPVSRWEYYDSVYTERYMGLPTPEDNLDHYRNSTVMSRAENFKQVEYLLIHGTADDNVHFQQSAQISKALVDVGVDFQAMWYTDEDHGIASSTAHQHIYTHMSHFIKQCFSLP
# Tests used:
# [1] = biological target: Comparator: GLP1 analogue having the amino acid sequence characteristics of LY2189265 fused to hIgG4 Fc domain
# Chain of Comparator: GLP1 analogue having the amino acid sequence characteristics of LY2189265 fused to hIgG4 Fc domain (chain, as listed by the source): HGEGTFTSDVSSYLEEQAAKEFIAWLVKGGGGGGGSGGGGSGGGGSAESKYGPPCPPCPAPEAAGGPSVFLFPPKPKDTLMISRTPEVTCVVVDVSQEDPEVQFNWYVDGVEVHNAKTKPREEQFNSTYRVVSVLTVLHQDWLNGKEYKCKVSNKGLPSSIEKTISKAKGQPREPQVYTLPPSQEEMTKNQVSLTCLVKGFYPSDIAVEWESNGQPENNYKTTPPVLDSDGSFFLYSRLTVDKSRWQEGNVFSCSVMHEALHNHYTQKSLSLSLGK
protein,measurement,setting,value
B1,Cleavage % after 4 hours,Q-GLP1-hFc,0%
same,Cleavage % after 72 hours,Q-GLP1-hFc,0%
same,Cleavage % after 4 hours,[1],4%
same,Cleavage % after 72 hours,[1],41%
